Source: US6869925 (Amgen, dated 2005)

Columns and labels:
[1] = biological target: SLPI binding sites on U937 cells (human monocyte cell line; intact cells, PMA-induced cells or plasma membranes) (human); experiment: 125I-SLPI saturation binding, U937 cells plus PMA, *SLPI at 320 pM
[2] = biological target: SLPI binding sites on HuT78 cells (human T cell line) (human); experiment: 125I-SLPI saturation binding, intact HuT78 cells, *SLPI at 320 pM
[3] = biological target: SLPI binding sites on U937 cells (human monocyte cell line; intact cells, PMA-induced cells or plasma membranes) (human); experiment: 125I-SLPI saturation binding, intact U937 cells, *SLPI at 320 pM
[4] = biological target: SLPI binding sites on U937 cells (human monocyte cell line; intact cells, PMA-induced cells or plasma membranes) (human); experiment: competition with 125I-SLPI, intact U937 cells, cold SLPI at 2750 nM
[5] = biological target: SLPI binding sites on U937 cells (human monocyte cell line; intact cells, PMA-induced cells or plasma membranes) (human); experiment: 125I-SLPI saturation binding, intact U937 cells, *SLPI at 10,240 pM
[6] = biological target: SLPI binding sites on HuT78 cells (human T cell line) (human); experiment: competition with 125I-SLPI, intact HuT78 cells, competitor at 2750 nM
[7] = biological target: SLPI binding sites on HuT78 cells (human T cell line) (human); experiment: competition with 125I-SLPI, intact HuT78 cells, cold SLPI at 2.6 nM
[8] = biological target: SLPI binding sites on U937 cells (human monocyte cell line; intact cells, PMA-induced cells or plasma membranes) (human); experiment: 125I-SLPI saturation binding, U937 cells plus PMA, *SLPI at 5,120 pM
[9] = biological target: SLPI binding sites on U937 cells (human monocyte cell line; intact cells, PMA-induced cells or plasma membranes) (human); experiment: competition with 125I-SLPI, U937 plasma membranes, competitor at 0.800 nM
[10] = biological target: SLPI binding sites on U937 cells (human monocyte cell line; intact cells, PMA-induced cells or plasma membranes) (human); experiment: competition with 125I-SLPI, intact U937 cells, cold SLPI at 0.024 nM
[11] = biological target: SLPI binding sites on HuT78 cells (human T cell line) (human); experiment: competition with 125I-SLPI, intact HuT78 cells, cold SLPI at 0.80 nM
[12] = biological target: SLPI binding sites on U937 cells (human monocyte cell line; intact cells, PMA-induced cells or plasma membranes) (human); experiment: 125I-SLPI saturation binding, U937 cells minus PMA, *SLPI at 2560 pM
[13] = biological target: SLPI binding sites on U937 cells (human monocyte cell line; intact cells, PMA-induced cells or plasma membranes) (human); experiment: competition with 125I-SLPI, intact U937 cells, competitor at 0.024 nM
[14] = biological target: SLPI binding sites on HuT78 cells (human T cell line) (human); experiment: 125I-SLPI saturation binding, intact HuT78 cells, *SLPI at 640 pM
[15] = biological target: SLPI binding sites on U937 cells (human monocyte cell line; intact cells, PMA-induced cells or plasma membranes) (human); experiment: competition with 125I-SLPI, intact U937 cells, competitor at 270 nM
[16] = biological target: SLPI binding sites on HuT78 cells (human T cell line) (human); experiment: competition with 125I-SLPI, intact HuT78 cells, competitor at 84 nM
[17] = biological target: SLPI binding sites on U937 cells (human monocyte cell line; intact cells, PMA-induced cells or plasma membranes) (human); experiment: 125I-SLPI saturation binding, intact U937 cells, *SLPI at 2560 pM
[18] = biological target: SLPI binding sites on U937 cells (human monocyte cell line; intact cells, PMA-induced cells or plasma membranes) (human); experiment: 125I-SLPI saturation binding, U937 cells minus PMA, *SLPI at 1280 pM
[19] = biological target: SLPI binding sites on U937 cells (human monocyte cell line; intact cells, PMA-induced cells or plasma membranes) (human); experiment: competition with 125I-SLPI, intact U937 cells, cold SLPI at 84 nM
[20] = biological target: SLPI binding sites on HuT78 cells (human T cell line) (human); experiment: 125I-SLPI saturation binding, intact HuT78 cells, *SLPI at 1280 pM
[21] = biological target: SLPI binding sites on U937 cells (human monocyte cell line; intact cells, PMA-induced cells or plasma membranes) (human); experiment: competition with 125I-SLPI, intact U937 cells, competitor at 2.6 nM
[22] = biological target: SLPI binding sites on HuT78 cells (human T cell line) (human); experiment: competition with 125I-SLPI, intact HuT78 cells, cold SLPI at 0.078 nM
[23] = biological target: SLPI binding sites on U937 cells (human monocyte cell line; intact cells, PMA-induced cells or plasma membranes) (human); experiment: 125I-SLPI saturation binding, U937 cells minus PMA, *SLPI at 5120 pM
[24] = biological target: SLPI binding sites on U937 cells (human monocyte cell line; intact cells, PMA-induced cells or plasma membranes) (human); experiment: competition with 125I-SLPI, U937 plasma membranes, Kd by Cheng-Prusoff

serine leukocyte protease inhibitor (SLPI), sequence (P03973 26-132): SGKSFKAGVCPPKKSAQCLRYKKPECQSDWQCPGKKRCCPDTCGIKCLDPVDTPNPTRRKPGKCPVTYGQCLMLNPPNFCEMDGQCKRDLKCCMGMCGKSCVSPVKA

serine leukocyte protease inhibitor (SLPI) (from UniProt P03973 26-132)
bound pM [1]: 65 pM
bound per free [1]: 0.255
sites bound per cell (sites per cell) [1]: 3920
specific cpm [1]: 698 cpm
bound pM [2]: 2.53 pM
bound per free [2]: 0.0079
sites bound per cell (sites per cell) [2]: 152
specific cpm [2]: 101 cpm
bound *SLPI (pM) [3]: 65.7 pM
bound per free [3]: 0.258
sites bound per cell (sites per cell) [3]: 3960
specific cpm [3]: 2620 cpm
% *SLPI BOUND [4]: 0.5%
bound *SLPI (pM) [5]: 463 pM
bound per free [5]: 0.047
sites bound per cell (sites per cell) [5]: 27900
specific cpm [5]: 18500 cpm
% *SLPI BOUND [6]: 0%
% *SLPI BOUND [7]: 56%
bound pM [8]: 135 pM
bound per free [8]: 0.027
sites bound per cell (sites per cell) [8]: 8130
specific cpm [8]: 1440 cpm
CPM *SLPI BOUND [9]: 14800 cpm
% *SLPI BOUND [10]: 100%
% *SLPI BOUND [11]: 62%
bound *SLPI (pM) [12]: 593 pM
bound per free [12]: 0.301
sites bound per cell (sites per cell) [12]: 35700
specific cpm [12]: 6340 cpm
% *SLPI BOUND [13]: 111%
bound pM [14]: 2.53 pM
bound per free [14]: 0.0039
sites bound per cell (sites per cell) [14]: 152
specific cpm [14]: 101 cpm
% *SLPI BOUND [15]: 5%
% *SLPI BOUND [16]: 27%
bound *SLPI (pM) [17]: 339 pM
bound per free [17]: 0.153
sites bound per cell (sites per cell) [17]: 20400
specific cpm [17]: 13500 cpm
bound *SLPI (pM) [18]: 396 pM
bound per free [18]: 0.448
sites bound per cell (sites per cell) [18]: 23900
specific cpm [18]: 4230 cpm
% *SLPI BOUND [19]: 3.5%
bound pM [20]: 7.6 pM
bound per free [20]: 0.0059
sites bound per cell (sites per cell) [20]: 458
specific cpm [20]: 303 cpm
% *SLPI BOUND [21]: 46%
% *SLPI BOUND [22]: 90%
bound *SLPI (pM) [23]: 748 pM
bound per free [23]: 0.171
sites bound per cell (sites per cell) [23]: 45100
specific cpm [23]: 7990 cpm
Kd [24]: 2 nM
